Laboratory results taken from publication PMC3282585 (Science Signaling, 2011).

Biological target: T1, IL17RA-SEFIR (SEFIR domain-containing fragment of human IL17RA, residues 351 to 616) (human, UniProt Q96F46 351-616)
T1 sequence (looked up): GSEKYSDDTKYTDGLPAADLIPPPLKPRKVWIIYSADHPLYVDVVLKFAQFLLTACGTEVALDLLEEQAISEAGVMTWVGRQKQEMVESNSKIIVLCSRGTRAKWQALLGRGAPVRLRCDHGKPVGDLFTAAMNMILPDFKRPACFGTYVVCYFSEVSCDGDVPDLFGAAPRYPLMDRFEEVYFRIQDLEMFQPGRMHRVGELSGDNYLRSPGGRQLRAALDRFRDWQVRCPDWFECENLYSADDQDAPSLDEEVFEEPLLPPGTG
Assay: SPR

binding result: binds
Binder: LDEDEHGLHTKY [CC′ loop peptide of the Act1 SEFIR domain]
